Measured values from PMC6181439.

Molecular target: Recombinant mouse PrP lacking FT (90-230) (mouse) (UniProt P04925)
Experiment: SPR
Conditions: bispecific antibody

“scPOM-bi, POM1-POM2 bispecific single chain antibody” was tested, and the Kd was 3.6 nM and the koff was 0.00031 s⁻¹.
